Residue numbers refer to the chain shown, from its start. Names and notes keep the numbering of the source. Values belong to the binder of their own block, whether it stands above or below them.
Columns and labels:
[1] = target: T1, C type Lectin Like molecule 1 (CLL-1), human, on cells (human, UniProt Q5QGZ9 1-265); test: flow cytometry on U937 cells (listed as CLL-1 expressing in paragraph 160), MFI of C6-CLT-D202 ADC over MFI of control C0-CLT-D202 ADC
T1 construct: whole, on cells; also called CLEC12A; DCAL-2
T1 sequence (looked up): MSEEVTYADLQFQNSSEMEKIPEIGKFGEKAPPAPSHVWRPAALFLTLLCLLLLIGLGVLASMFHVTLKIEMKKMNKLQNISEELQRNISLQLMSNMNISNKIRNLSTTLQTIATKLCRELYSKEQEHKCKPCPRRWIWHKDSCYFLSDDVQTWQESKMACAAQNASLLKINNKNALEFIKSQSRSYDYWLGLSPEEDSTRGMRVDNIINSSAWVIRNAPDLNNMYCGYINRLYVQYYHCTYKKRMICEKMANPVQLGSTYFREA

[2] = target: T1, C type Lectin Like molecule 1 (CLL-1), …; test: flow cytometry on HL-60 cells (express CLL-1), MFI of C6-CLT-D202 ADC over MFI of control C0-CLT-D202 ADC
[3] = target: T1, C type Lectin Like molecule 1 (CLL-1), …; test: flow cytometry on PL21 cells, MFI of C6-CLT-D202 ADC over MFI of control C0-CLT-D202 ADC; CLL-1 expression of this line not stated
[4] = target: T1, C type Lectin Like molecule 1 (CLL-1), …; test: flow cytometry on EOL-1 cells, MFI of C6-CLT-D202 ADC over MFI of control C0-CLT-D202 ADC; CLL-1 expression of this line not stated
[5] = target: T1, C type Lectin Like molecule 1 (CLL-1), …; test: flow cytometry on AML5 cells (express CLL-1), MFI of C6-CLT-D202 ADC over MFI of control C0-CLT-D202 ADC
[6] = target: T1, C type Lectin Like molecule 1 (CLL-1), …; test: flow cytometry on AML2 cells, MFI of C6-CLT-D202 ADC over MFI of control C0-CLT-D202 ADC; CLL-1 expression of this line not stated
[7] = target: T1, C type Lectin Like molecule 1 (CLL-1), …; test: flow cytometry on HNT-34 cells, MFI of C6-CLT-D202 ADC over MFI of control C0-CLT-D202 ADC; CLL-1 expression of this line not stated
[8] = target: T1, C type Lectin Like molecule 1 (CLL-1), …; test: cell-based or functional assay
[9] = target: T1, C type Lectin Like molecule 1 (CLL-1), …; test: cell-based or functional assay; remark: listed apart in the source
[10] = target: T1, C type Lectin Like molecule 1 (CLL-1), …; test: flow cytometry on HEL92.1.7-CLL1 cells, MFI of C6-CLT-D202 ADC over MFI of control C0-CLT-D202 ADC
[11] = target: T1, C type Lectin Like molecule 1 (CLL-1), …; test: cell-based or functional assay; remark: listed apart in the source
[12] = target: T1, C type Lectin Like molecule 1 (CLL-1), …; test: flow cytometry on KG-1a cells, MFI of C6-CLT-D202 ADC over MFI of control C0-CLT-D202 ADC; CLL-1 expression of this line not stated
[13] = target: T1, C type Lectin Like molecule 1 (CLL-1), …; test: flow cytometry on SHI-1 cells, MFI of C6-CLT-D202 ADC over MFI of control C0-CLT-D202 ADC; CLL-1 expression of this line not stated
CLL-1 bearing a His Tag [14] = target: T2, CLL-1 bearing a His Tag; test: ELISA on His-tagged CLL-1, purified antibody
T2 construct: also called CLL1 His Tag antigen; His Tag antigen; not shown: The exact limits of the construct are not described
T2 chain: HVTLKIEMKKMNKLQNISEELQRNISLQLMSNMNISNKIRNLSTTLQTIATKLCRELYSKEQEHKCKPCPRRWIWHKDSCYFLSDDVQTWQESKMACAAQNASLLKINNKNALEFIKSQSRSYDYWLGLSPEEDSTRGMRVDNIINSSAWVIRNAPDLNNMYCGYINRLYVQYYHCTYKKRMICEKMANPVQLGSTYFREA
Protocol: FIG. 8 is an ELISA analysis of the binding of purified ChM31 (SEQ ID NO:14/SEQ ID NO:10), HuM31-VH2/VL2 (SEQ ID NO:16/SEQ ID NO:12), HuM31-VH3/VL2 (SEQ ID NO:17/SEQ ID NO:12), and HuM31-VH4/VL2 (SEQ ID NO:18/SEQ ID NO:12), antibodies to CLL-1 bearing a His Tag. Each antibody was tested at various concentrations, starting at 1 μg/ml and serial 2-fold dilutions. Absorbance values (Y-axis) are plotted at each antibody concentration tested (X-axis) in the figure.
Referring to FIG. 8, each antibody was tested at various concentrations, starting at 1 μg/mL and serial 2-fold dilutions. Absorbance values (Y-axis) are plotted at each antibody concentration tested (X-axis) in the figure.

CLL-1 bearing a His Tag [15] = target: T2, CLL-1 bearing a His Tag; test: competitive ELISA on His-tagged CLL-1; binding of mouse M31 is detected, the named antibody is the competitor
Protocol: FIG. 9 is an ELISA analysis of competitive binding affinity of ChM31 (SEQ ID NO:14/SEQ ID NO:10), HuM31-VH1/VL2 (SEQ ID NO:15/SEQ ID NO:12), HuM31-VH2/VL2 (SEQ ID NO:16/SEQ ID NO:12), HuM31-VH3/VL2 (SEQ ID NO:17/SEQ ID NO:12), and HuM31-VH4/VL2 (SEQ ID NO:18/SEQ ID NO:12), antibodies to CLL-1 bearing a His Tag. Binding of mouse M31 antibody in the presence of ChM31, HuM31-VH2/VL2, HuM31-VH3/VL2 or HuM31-VH4/VL2 antibody, starting at 25 μg/ml and serial 3-fold dilutions, was analyzed. Absorbance values (Y-axis) are plotted at each antibody concentration tested (X-axis) in the figure. IC₅₀ values were calculated using GraphPad Prism.
Referring to FIG. 9, binding of mouse M31 antibody in the presence of ChM31, HuM31-VH2/VL2, HuM31-VH3/VL2 or HuM31-VH4/VL2 antibody, starting at 25 μg/mL and serial 3-fold dilutions, was analyzed. Absorbance values (Y-axis) are plotted at each antibody concentration tested (X-axis) in the figure. IC50 values were calculated using GraphPad Prism.

[16] = target: T1, C type Lectin Like molecule 1 (CLL-1), …; test: competition by flow cytometry on 293-CLL1 cells; Alexa488-labelled ChiM31 is displaced by the unlabelled antibody (half-maximal displacement, headed EC50 on the sheet)
Protocol: FIG. 10 is an […] of competitive binding to 293CLL1 cells. ChiM31 was labelled with Alex488. Binding of ChiM31-Alex488 antibody in the presence of ChiM31, HuM31 and mouse M31 starting at 30 μg/ml and serial 3-fold dilutions, was analyzed. Absorbance values MFI (Y-axis) are plotted at each antibody concentration tested (X-axis) in the figure. IC₅₀ values were calculated using GraphPad Prism.
Referring to FIG. 10, ChiM31 was labeled with Alexa488. 293-CLL1 cells were pre-incubated with 1 μg of labeled ChiM31, and then completed with various amount of ChiM31 and HuM31. FACS were performed and data were analyzed and EC50 were calculated.

B1: C6-CLT-D202 ADC (humanized, cys-substituted at position 239 anti-CLL1 antibody C6-S239C-CYSMAB conjugated to CLT-D202) (antibody, V domains shown)
VH: EVQLVQSGAEVKKPGASVKMSCKASGYTFTSYFIHWVRQAPGQGLEWIGFINPYNDGSKYAQKFQGRATLTSDKSTSTVYMELSSLRSEDTAVYYCTRDDGYYGYAMDYWGQGTLVTVSS
VL: DIQMTQSPSSLSASVGDRVTLTCRATQELSGYLSWLQQKPGKAIKRLIYAASTLDSGVPSRFSGNRAGTDYTLTISSLQPEDFATYYCLQYAIYPYTFGQGTKLEIK
modifications: S239C in the heavy chain constant region (constant region sequence not given); CLT-D202 drug-linker conjugated to the engineered Cys 239; drug to antibody ratio 1.7
notes: Only variable regions are printed; it carries S239C; also called C6-D202; CLL1-ADC
relative MFI C6/C0 [1]: 14.7 ratio
relative MFI C6/C0 [2]: 20 ratio
relative MFI C6/C0 [3]: 14.7 ratio
relative MFI C6/C0 [4]: 20.5 ratio
relative MFI C6/C0 [5]: 15 ratio
relative MFI C6/C0 [6]: 13 ratio
relative MFI C6/C0 [7]: 5.8 ratio
IC50, cytotoxicity on AML2 cells [8]: 0.003 µg/mL
IC50, cytotoxicity on AML5 cells [8]: 0.013 µg/mL
IC50, cytotoxicity on EOL-1 cells [8]: 0.0137 µg/mL
IC50, cytotoxicity on HEL92.1.7-CLL1 cells [8]: 0.017 µg/mL
IC50, cytotoxicity on HL-60 cells [8]: 0.011 µg/mL
IC50, cytotoxicity on HNT-34 cells [8]: 3.5 µg/mL
IC50, cytotoxicity on KG-1a cells [8]: 82.8 µg/mL
IC50, cytotoxicity on PL21 cells [8]: 0.199 µg/mL
IC50, cytotoxicity on SHI-1 cells [8]: 5.67 µg/mL
IC50, cytotoxicity on U937 cells [8]: 11.7 µg/mL
IC50, killing of proliferating AML-5 cells [9]: 0.03 µg/mL
IC50, killing of quiescent AML-5 cells [9]: 0.02 µg/mL
cell killing of HL-60 cells, relative to the control ADC [9]: > 500 fold
decrease in IC50, TF1-CLL1 against TF1 cells [9]: ~1000 fold
relative MFI C6/C0 [10]: 26.1 ratio
IC50, cytotoxicity on TF1-CLL1 cells [11]: 0.008 µg/mL
relative MFI C6/C0 [12]: 1.3 ratio
relative MFI C6/C0 [13]: 1.4 ratio

B2: ChM31 (antibody, V domains shown)
VH: EVQLQQSGPELVKPGASVKMSCKASGYTFTSYVMHWVKQKPGQGLEWIGYINPYNDGTKYNEKFKGKATLTSDTSSSTAYMELNSLTSEDSAVYFCARPIYFDNDYFDYWGQGTTLKVSS
VL: TIVLTQSPASLAVSLGQRATISCRASESVDSYGNSFMHWYQQKPGQPPKLLIYLASNLESGVPARFSGSGSRTDFTLTIDPVEADDAATYYCQQNNYDPWTFGGGTKLEIK
notes: chimeric M31; also called Chi M31; ChiM31
EC50 (read off the curve) (CLL-1 bearing a His Tag [14]): ~0.05 µg/mL
IC50 (read off the curve) (CLL-1 bearing a His Tag [15]): ~0.6 µg/mL
EC50 [16]: 0.71 µg/mL

B6: Hu M31 (antibody, V domains shown)
VH: QVQLVQSGAEVKKPGASVKVSCKASGYTFTSYVMHWVRQAPGQRLEWIGYINPYNDGTKYNEKFKGKATITSDTSASTAYMELSSLRSEDTAVYYCARPIYFDNDYFDYWGQGTLVTVSS
VL: DIVMTQSPDSLAVSLGERATINCRASESVDSYGNSFMHWYQQKPGQPPKLLIYLASNLESGVPDRFSGSGSGTDFTLTISSLQAEDVAVYYCQQNNYDPWTFGGGTKVEIK
EC50 [16]: 1.77 µg/mL

More lines, now with the values ahead:

EC50 (read off the curve) (CLL-1 bearing a His Tag [14]): ~0.06 µg/mL
B3: HuM31-VH2/VL2 (antibody, V domains shown)
VH: B6 VH with K67R, I70L, A76T, S84R, E89D, L115T
VL: B2 VL with T1D, L4M, A9D, Q17E, S22N, R72G
notes: humanized M31 variant

EC50 (read off the curve) (CLL-1 bearing a His Tag [14]): ~0.04 µg/mL
B4: HuM31-VH3/VL2 (antibody, V domains shown)
VH: B6 VH with Q43R
VL: B2 VL with T1D, L4M, A9D, Q17E, S22N, R72G
notes: humanized M31 variant

EC50 (read off the curve) (CLL-1 bearing a His Tag [14]): ~0.04 µg/mL
B5: HuM31-VH4/VL2 (antibody, V domains shown)
VH: B6 VH with Q43R, K67R, A68V
VL: B2 VL with T1D, L4M, A9D, Q17E, S22N, R72G
notes: humanized M31 variant

From US20180355044A1 (CELLERANT THERAPEUTICS, published 2018)
